Results: the supplement of paper PMC9233669
This sample holds only a part of the variants without activity.

Tests used:
biotinyl-Phe-oxazolone = test: self-aminoacylation, catalytic enhancement (BFO) (fold over background); higher = more active; k-Seq, kA / k0A0; sequences stand for … in GGGAAUGGAUCCACAUCUACGAAUUC…UUCACUGCAGACUUGACGAAGCUG
In short: (§1)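 Working in 50 μL HEPES/NaCl/KCl/MgCl2/CaCl2 buffer with 5% acetonitrile at pH 6.9–7.0, mutagenized RNA pools (0.43 μM; 21-nt variable region) were reacted with 2–1250 μM of each biotinyl-aminoacyl-oxazolone for 90 minutes at room temperature. Streptavidin capture followed, with quantification by triplicate qPCR and Illumina sequencing. Catalytic enhancement is reported as median kA over the uncatalyzed rate, the low-activity peak of a bimodal Gaussian fit to the data.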

biotinyl-Val-oxazolone = test: self-aminoacylation, catalytic enhancement (BVO) (fold over background); higher = more active; k-Seq, kA / k0A0; sequences stand for … in GGGAAUGGAUCCACAUCUACGAAUUC…UUCACUGCAGACUUGACGAAGCUG
In short: as §1

biotinyl-Met-oxazolone = test: self-aminoacylation, catalytic enhancement (BMO) (fold over background); higher = more active; k-Seq, kA / k0A0; sequences stand for … in GGGAAUGGAUCCACAUCUACGAAUUC…UUCACUGCAGACUUGACGAAGCUG
In short: as §1

biotinyl-Trp-oxazolone = test: self-aminoacylation, catalytic enhancement (BWO) (fold over background); higher = more active; k-Seq, kA / k0A0; sequences stand for … in GGGAAUGGAUCCACAUCUACGAAUUC…UUCACUGCAGACUUGACGAAGCUG
In short: as §1

biotinyl-Ile-oxazolone = test: self-aminoacylation, catalytic enhancement (BIO) (fold over background); higher = more active; k-Seq, kA / k0A0; sequences stand for … in GGGAAUGGAUCCACAUCUACGAAUUC…UUCACUGCAGACUUGACGAAGCUG
In short: as §1

biotinyl-Leu-oxazolone = test: self-aminoacylation, catalytic enhancement (BLO) (fold over background); higher = more active; k-Seq, kA / k0A0; sequences stand for … in GGGAAUGGAUCCACAUCUACGAAUUC…UUCACUGCAGACUUGACGAAGCUG
In short: as §1

| Sequence | self-aminoacylation (biotinyl-Phe-oxazolone) | self-aminoacylation (biotinyl-Val-oxazolone) | self-aminoacylation (biotinyl-Met-oxazolone) | self-aminoacylation (biotinyl-Trp-oxazolone) | self-aminoacylation (biotinyl-Ile-oxazolone) | self-aminoacylation (biotinyl-Leu-oxazolone) |
| --- | --- | --- | --- | --- | --- | --- |
| CUGCUUCAGACAAUCGGUCUG [Fam1A.1 aminoacylation ribozyme variant] | 1.78 | 0.929 | 1.22 | 1.28 | 0.949 | 1.1 |
| CUGCUUGAAACAAUCGGUCUG [Fam1A.1 aminoacylation ribozyme variant] | 0.928 | 0.959 | 0.842 | 1.07 | 0.9 | 0.867 |
| CUUAACCUAGGUCAUCGGGUG [Fam2.2 aminoacylation ribozyme variant] | 15.8 | 2.69 | 4.25 | 4.21 | 2.91 | 4.78 |
| CUUAACCUGGUCAUCGAGUGA [Fam2.1 aminoacylation ribozyme variant] | 5.1 | 3.11 | 5.64 | 6.88 | 2.9 | 4.95 |
| CUUACCCCGGUCAUCGAGUGA [Fam2.1 aminoacylation ribozyme variant] | 19.8 | 3.92 | 6.51 | 6.76 | 3.44 | 6.2 |
| CUUACCCUGAUCAUCGAGUGA [Fam2.1 aminoacylation ribozyme variant] | 16.5 | 3.94 | 7.49 | 9.22 | 3.64 | 7.51 |
| CUUACCCUGGUCAUCAAGUGA [Fam2.1 aminoacylation ribozyme variant] | 4.44 | 1.93 | 2.58 | 3.4 | 1.67 | 2.58 |
| CUUACCCUGGUCAUCGACUGA [Fam2.1 aminoacylation ribozyme variant] | 0.459 | 0.739 | 0.673 | 1.31 | 1.1 | 0.833 |
| CUUACCCUGGUCAUCGAGUGG [Fam2.1 aminoacylation ribozyme variant] | 16.9 | 3.74 | 8.78 | 7.54 | 3.47 | 8.35 |
| CUUACCCUGGUCAUCUAGUGA [Fam2.1 aminoacylation ribozyme variant] | 29.7 | 3.89 | 7.9 | 10.4 | 3.75 | 8.12 |
| CUUCACCCAGGUCAUCGGGUG [Fam2.2 aminoacylation ribozyme variant] | 25.2 | 3.34 | 4.41 | 3.73 | 2.29 | 3.23 |
| CUUCACCUAGGUCACCGGGUG [Fam2.2 aminoacylation ribozyme variant] | 21.9 | 3.81 | 3.54 | 5.51 | 2.92 | 5.4 |
| CUUCACCUAGGUCAGCGGGUG [Fam2.2 aminoacylation ribozyme variant] | 9.81 | 3.88 | 3.27 | 4.01 | 3.62 | 4.96 |
| CUUCACCUAGGUCUUCGGGUG [Fam2.2 aminoacylation ribozyme variant] | 34.1 | 5.98 | 6.17 | 6.37 | 4.13 | 6.81 |
| CUUCUUCAAACAAUCGCUCUG [Fam1A.1 aminoacylation ribozyme variant] | 1.72 | 0.928 | 0.85 | 1.55 | 0.783 | 0.823 |
| CUUCUUCAAACAAUCGGCCUG [Fam1A.1 aminoacylation ribozyme variant] | 31.1 | 1.48 | 1.72 | 28.5 | 1.34 | 1.88 |
| CUUCUUCAAACAAUCGGUCUU [Fam1A.1 aminoacylation ribozyme variant] | 13.4 | 0.925 | 0.814 | 7.08 | 0.878 | 0.997 |
| CUUCUUCAAACACUCGGUCUG [Fam1A.1 aminoacylation ribozyme variant] | 0.651 | 0.977 | 1.04 | 0.901 | 0.938 | 0.791 |
| CUUCUUCAAACUAUCGGUCUG [Fam1A.1 aminoacylation ribozyme variant] | 1.22 | 1.01 | 0.943 | 0.962 | 1.26 | 1 |
| CUUUCCCUGGUCAUCGAGUGA [Fam2.1 aminoacylation ribozyme variant] | 7.03 | 5.04 | 8.78 | 10.6 | 4.62 | 8.95 |
| GAACACUUCAAGCAAUCGGUC [Fam1B.1 aminoacylation ribozyme variant] | 23.3 | 2.03 | 1.53 | 18.6 | 2.05 | 1.96 |
| GAACUUCAAACAAUCGGUCUG [Fam1A.1 aminoacylation ribozyme variant] | 65.3 | 1.66 | 1.7 | 35.8 | 1.85 | 2.4 |
| GACUUUGCUAAUAGUCGCAAG [Fam3.1 aminoacylation ribozyme variant] | 2.88 | 1.72 | 2.11 | 1.97 | 1.74 | 1.85 |
| GAGUUAGCUAAUAGUCGCAAG [Fam3.1 aminoacylation ribozyme variant] | 2.62 | 1.64 | 1.5 | 2.62 | 2.14 | 2.12 |
| GAGUUCGCUAAUAGUCGCAAG [Fam3.1 aminoacylation ribozyme variant] | 8.98 | 2.52 | 1.91 | 2.21 | 2.8 | 2.71 |
